Biological target: biotinylated AP-neuroligin-1 on rat hippocampal neurons (mouse) (UniProt Q99K10)
Assay: cell-based or functional assay

Chain of monovalent streptavidin A1D3 conjugated to Alexa Fluor 568 (designed binder) (chain): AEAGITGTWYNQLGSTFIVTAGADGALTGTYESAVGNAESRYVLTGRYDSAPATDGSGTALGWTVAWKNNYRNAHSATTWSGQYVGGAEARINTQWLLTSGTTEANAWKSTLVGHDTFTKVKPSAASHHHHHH
Chain of monovalent streptavidin A1D3 conjugated to Alexa Fluor 568 (designed binder) (chain): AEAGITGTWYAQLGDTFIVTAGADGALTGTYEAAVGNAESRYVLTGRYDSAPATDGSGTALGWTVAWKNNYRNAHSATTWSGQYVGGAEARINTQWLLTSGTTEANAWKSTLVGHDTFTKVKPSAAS

Substance | clusters/µm of labeled AP-neuroligin-1 after a two hour incubation [clusters/µm]
Alexa Fluor 568-conjugated wild-type streptavidin (Molecular Probes) (from UniProt P22629 37-163) | 0.266
monovalent streptavidin A1D3 conjugated to Alexa Fluor 568 (designed binder) | 0.087

From patent US20070105162A1, “Monovalent avidin and streptavidin compositions” (Massachusetts Institute of Technology, priority 2005, published 2007)
